Measured values: PMC8748714 (2022)

B1: unnamed (parent)
chain 1: HSQGTFTSDYSKYLDSRRAQDFVQWLMNTKRNRNNIA
chain 2: RPQGATVSLWETVQKWREYRRQCQRSLTEDPPPATDLFCNRTFDEYACWPDGEPGSFVNVSCPWYLPWASSVPQGHVYRFCTAEGLWLQKDNSSLPWRDLSECEESKRGERSSPEEQLLFLYIIYTVGYALSFSALVIASAILLGFRHLHCTRNYIHLNLFASFILRALSVFIKDAALKWMYSTAAQQHQWDGLLSYQDSLSCRLVFLLMQYCVAANYYWLLVEGVYLYTLLAFSVLSEQWIFRLYVSIGWGVPLLFVVPWGIVKYLYEDEGCWTRNSNMNYWLIIRLPILFAIGVNFLIFVRVICIVVSKLKANLMCKTDIKCRLAKSTLTLIPLLGTHEVIFAFVMDEHARGTLRFIKLFTELSFTSFQGLMVAILYCFVNNEVQLEFRKSWERWRLEHLHIQRDSSMKPLKCPTSSLSSGATAGSSMYTATCQASCS

Variants of: B1
Assay: radioligand competition binding on whole cells
Conditions: with partner chain of the complex shown;; read off a plot

Question: With chain 2 K174A as the variant, how does the log10 ratio read?
Answer: -1.9 pIC50 ΔWT

Question: How did the log10 ratio turn out when chain 2 R167A was run?
Answer: 0.1 pIC50 ΔWT

Question: chain 2 W274A was tested. Which log10 ratio did it give?
Answer: -0.4 pIC50 ΔWT

Question: With chain 2 E341A as the variant, how does the log10 ratio read?
Answer: 0.3 pIC50 ΔWT

Question: Which log10 ratio does the source give for chain 2 N217A here?
Answer: 0.3 pIC50 ΔWT

Variants of: B1
Assay: radioligand competition binding on whole cells
Conditions: with partner chain of the complex shown;; read off a plot
Remark: another data set of the same source

Question: How did the log10 ratio turn out when chain 2 W274A was run?
Answer: -0.3 pIC50 ΔWT

Question: How did the log10 ratio turn out when chain 2 E364A was run?
Answer: -0.85 pIC50 ΔWT
